Experimental data published in patent publication US20260166140A1, “Combinations Involving Epidermal Growth Factor Receptor Tyrosine Kinase Inhibitors For the Treatment of Cancer” (AstraZeneca AB, priority 2022, published 2026).

Assays:
[1] = test system: MEDI-PANC-08^LUC PDX model; experiment: Orthotopic luciferase expressing pancreatic PDX model efficacy; assay type: in vivo, mice; conditions: orthotopic MEDI-PANC-08^LUC; RAA2/B09 ADC 2 and 3 mg/kg Q1W×4; Gemcitabine 75 mg/kg; isotype control 3 mg/kg Q1W×4
Protocol: The luciferase expressing PDX model (MEDI-PANC-08^LUC) was grown subcutaneously in NSG seed mice and at a volume of 800-1200 mm^3 the tumors were harvested and cut into fragments of approximately 2 mm^3. The tumor fragments were subsequently sutured to the pancreas of NSG mice (Day Zero). Luciferase signal was determined weekly using the IVIS Spectrum In vivo Imaging system. Briefly, 10 minutes prior to imaging, 200 ul of luciferin dissolved in DPBS (15 mg/ml) was injected intra-peritoneally (i.p.). The mice were anesthetized under 3% isoflurane, laid on their right side and luminescence measured. Fourteen days after tumor implant, when luminescent signal was clearly detectable, the mice were randomized into their respective groups based on the luminescence. […] Luminescence was measured weekly. Study endpoints included body weight loss, deterioration of body condition and lethargy. Data were analyzed using the Living Image software (Perkin Elmer) and plotted as Average Radiance [p/s/cm2/sr] against time.

Cynomolgus monkey EGFR [2] = experiment: SPR (BIAcore T200) antibody capture kinetics; assay type: binding
Protocol: (§1) Mouse anti-human IgG was immobilized on a CM4 sensor chip with a final surface density of ˜2000 resonance units (RUs). A reference flow cell surface was also prepared on this sensor chip using identical immobilization protocol. Test and control article antibodies were prepared at 5-20 nM in instrument buffer (HBS-EP buffer; 0.01M HEPES, pH 7.4, 0.15M NaCl, 3 mM EDTA, and 0.005% P-20), along with 3-fold serial dilutions of purified EGFR (0.27-200 nM human, 0.4-900 nM cyno, and 4-1000 nM murine) or cMET proteins (0.27 to 66 nM human and 0.27-22 nM cyno) in instrument buffer. A sequential approach was utilized for kinetic measurements. Antibodies were first injected over the capture surface, at a flow rate of 10 μL/minute. Once the binding of the captured antibody stabilized, a single concentration of the analyte was injected over both capture and reference surfaces, at a flow rate of 75 μL/minute. The resulting binding response curves yielded the association phase data. Following the injection of analyte, the flow was then switched back to instrument buffer for 15 minutes to permit the collection of dissociation phase data, followed by a 1-minute pulse of 10 mM glycine, pH 1.5, to regenerate the antibody-captured surface on the chip. Binding responses against test and control article antibodies were recorded from duplicate injections of each concentration of analyte. In addition, several buffer injections were interspersed throughout the injection series. Select buffer injections were used along with the reference cell responses to correct the raw data sets for injection artifacts and/or nonspecific binding interactions, commonly referred to as “double referencing”. Corrected binding data were globally fit to a 1:1 binding model (Biacore T200 Evaluation software 2.0, GE Healthcare, Pittsburgh, PA).

Cynomolgus monkey cMET [3] = experiment: SPR (BIAcore T200) antibody capture kinetics; assay type: binding
Cynomolgus monkey cMET, sequence (as listed by the source): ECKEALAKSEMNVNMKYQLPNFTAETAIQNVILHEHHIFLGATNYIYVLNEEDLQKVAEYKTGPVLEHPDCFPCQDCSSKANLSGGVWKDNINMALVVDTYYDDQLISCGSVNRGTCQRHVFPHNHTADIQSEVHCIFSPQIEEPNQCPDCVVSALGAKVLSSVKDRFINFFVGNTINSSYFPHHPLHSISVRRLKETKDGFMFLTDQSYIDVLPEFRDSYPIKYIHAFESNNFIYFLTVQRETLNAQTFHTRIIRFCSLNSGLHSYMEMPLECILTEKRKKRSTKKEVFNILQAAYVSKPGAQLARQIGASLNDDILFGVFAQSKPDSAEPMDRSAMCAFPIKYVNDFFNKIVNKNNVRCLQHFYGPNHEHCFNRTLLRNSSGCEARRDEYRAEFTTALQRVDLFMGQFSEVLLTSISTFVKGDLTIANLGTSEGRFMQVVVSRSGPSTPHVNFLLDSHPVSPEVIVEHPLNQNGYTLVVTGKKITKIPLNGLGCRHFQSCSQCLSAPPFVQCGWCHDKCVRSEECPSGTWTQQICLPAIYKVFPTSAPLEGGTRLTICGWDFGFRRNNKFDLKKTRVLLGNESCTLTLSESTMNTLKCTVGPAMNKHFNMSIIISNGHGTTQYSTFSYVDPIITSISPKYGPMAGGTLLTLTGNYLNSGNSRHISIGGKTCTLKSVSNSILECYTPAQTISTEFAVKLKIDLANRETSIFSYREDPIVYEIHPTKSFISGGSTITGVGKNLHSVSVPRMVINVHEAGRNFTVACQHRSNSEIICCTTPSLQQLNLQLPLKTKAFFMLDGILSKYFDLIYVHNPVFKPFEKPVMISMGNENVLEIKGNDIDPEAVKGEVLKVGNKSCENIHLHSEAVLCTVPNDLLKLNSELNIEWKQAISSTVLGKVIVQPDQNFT
Protocol: as §1

Human EGFR [4] = biological target: T1, Human EGFR (Homo sapiens, UniProt P00533); experiment: SPR (BIAcore T200) antibody capture kinetics; assay type: binding
Protocol: as §1

Human cMET [5] = biological target: T2, Human cMET (Homo sapiens, UniProt P08581); experiment: SPR (BIAcore T200) antibody capture kinetics; assay type: binding
T2 sequence (P08581 25-932): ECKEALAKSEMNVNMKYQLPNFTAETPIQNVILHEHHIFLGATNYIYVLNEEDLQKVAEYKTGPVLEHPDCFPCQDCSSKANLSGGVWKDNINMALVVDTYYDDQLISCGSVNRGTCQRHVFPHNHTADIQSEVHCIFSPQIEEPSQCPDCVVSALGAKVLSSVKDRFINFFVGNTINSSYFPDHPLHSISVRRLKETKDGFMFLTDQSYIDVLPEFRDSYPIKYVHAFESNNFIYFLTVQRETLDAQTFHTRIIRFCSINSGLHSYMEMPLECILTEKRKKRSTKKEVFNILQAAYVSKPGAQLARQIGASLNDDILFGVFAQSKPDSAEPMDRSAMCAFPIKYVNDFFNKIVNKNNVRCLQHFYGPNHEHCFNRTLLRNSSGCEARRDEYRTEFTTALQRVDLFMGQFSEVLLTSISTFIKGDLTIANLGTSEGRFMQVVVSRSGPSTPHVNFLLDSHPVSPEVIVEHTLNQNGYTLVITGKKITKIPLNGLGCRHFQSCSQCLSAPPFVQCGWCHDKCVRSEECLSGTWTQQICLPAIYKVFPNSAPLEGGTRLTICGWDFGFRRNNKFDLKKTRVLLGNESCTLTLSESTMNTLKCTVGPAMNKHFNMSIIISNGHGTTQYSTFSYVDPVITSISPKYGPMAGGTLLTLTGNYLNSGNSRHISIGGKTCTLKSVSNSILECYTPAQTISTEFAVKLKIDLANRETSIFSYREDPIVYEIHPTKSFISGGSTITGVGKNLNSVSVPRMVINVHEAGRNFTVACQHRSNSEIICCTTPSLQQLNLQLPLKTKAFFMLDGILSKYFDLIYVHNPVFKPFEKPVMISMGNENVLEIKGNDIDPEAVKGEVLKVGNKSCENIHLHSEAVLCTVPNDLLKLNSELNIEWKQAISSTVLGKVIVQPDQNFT
Protocol: as §1

Mouse EGFR [6] = biological target: T3, Mouse EGFR (Mus musculus, UniProt Q01279); experiment: SPR (BIAcore T200) antibody capture kinetics; assay type: binding
T3 construct: purchased SinoBiological 51091-M08H
Protocol: as §1

Mouse cMET = biological target: T4, Mouse cMET (Mus musculus, UniProt P16056); experiment: SPR (BIAcore T200) antibody capture kinetics; assay type: binding
T4 construct: purchased SinoBiological 50622-M08H
T4 sequence (P16056 25-929 limits assumed): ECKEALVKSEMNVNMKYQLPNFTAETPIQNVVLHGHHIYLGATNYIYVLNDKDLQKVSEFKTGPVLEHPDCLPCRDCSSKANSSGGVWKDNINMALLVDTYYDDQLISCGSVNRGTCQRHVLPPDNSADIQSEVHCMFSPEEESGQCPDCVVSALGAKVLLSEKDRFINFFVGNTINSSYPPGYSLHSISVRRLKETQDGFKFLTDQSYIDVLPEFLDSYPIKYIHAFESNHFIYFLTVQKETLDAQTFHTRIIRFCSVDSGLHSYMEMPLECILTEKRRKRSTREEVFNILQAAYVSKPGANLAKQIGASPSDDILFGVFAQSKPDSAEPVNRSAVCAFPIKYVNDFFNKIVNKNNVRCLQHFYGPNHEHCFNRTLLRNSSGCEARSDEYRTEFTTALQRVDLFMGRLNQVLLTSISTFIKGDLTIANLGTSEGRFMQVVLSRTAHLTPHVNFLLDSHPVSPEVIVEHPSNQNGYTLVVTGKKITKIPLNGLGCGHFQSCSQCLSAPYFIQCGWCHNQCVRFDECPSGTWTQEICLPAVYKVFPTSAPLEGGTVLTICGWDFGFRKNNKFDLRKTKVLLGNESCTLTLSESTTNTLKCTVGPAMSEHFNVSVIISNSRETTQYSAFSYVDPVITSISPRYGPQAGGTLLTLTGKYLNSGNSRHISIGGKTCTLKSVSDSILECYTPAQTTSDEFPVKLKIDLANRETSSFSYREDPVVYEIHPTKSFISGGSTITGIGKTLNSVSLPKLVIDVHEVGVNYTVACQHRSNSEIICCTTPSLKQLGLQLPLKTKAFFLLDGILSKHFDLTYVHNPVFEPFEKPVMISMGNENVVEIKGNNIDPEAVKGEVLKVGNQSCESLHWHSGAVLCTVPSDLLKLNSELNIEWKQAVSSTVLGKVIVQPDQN
Protocol: as §1

Cynomolgus monkey cMET [7] = experiment: ELISA species cross reactivity; assay type: binding
Protocol: (§2) Specificity for EGFR and cMET species paralogs and closely related family members was determined by ELISA. Briefly, antigen solutions were prepared in PBS at 1 μg/mL and 50 microliters was coated onto half area ELISA assay plates. Plates were washed and blocked with 1% BSA in PBS containing 0.005% Tween-20 (PBS-T) for one hour at room temperature. The wells were washed 4 times in PBS-T. As set out in FIG. 3, the primary antibodies used where: R374 (a non-binding IgG1 isotype control antibody), B09 (anti-cMET antibody), QD6 (anti-EGFR antibody), RAA22 (anti-EGFR antibody), QD6/B09 (bispecific EGFR/c-MET DuetMAb), RAA22/B09 (bispecific EGFR/c-MET DuetMAb), PaniX (anti-EGFR antibody), MetMab (anti-cMET antibody) and Mab11311 (anti-HER4 antibody). Wells were incubated with 50 microliters of the indicated primary antibodies diluted in PBS-T in a 1:3 dilution series, starting at 10 μg/mL and ending at 0.002 μg/mL, except for the HER4 binding mAb control, MAB1131, for which the series started at 1 μg/mL. The wells were washed 4 times in PBS-T, then 50 μl of goat anti-human Fab HRP-labeled secondary antibody, diluted 1:5000 in PBS-T, was added to each well and incubated for one hour at room temperature. […] 50 microliters of TMB stop solution was added to all wells and the absorbance was read at 450 nm on a SpectraMax M5 microplate reader. Data were analyzed in the SoftMax Pro 5 software and plotted using GraphPad Prism 7 graphing software.
(§3) To determine the species cross reactivity, ELISA assays were carried out as described above. […] There was no detectable binding of any of the antibodies to mouse cMET.

Human cMET [8] = biological target: T2, Human cMET; experiment: ELISA species cross reactivity; assay type: binding
Protocol: as §2, §3

Ron (CD136) = Ron (CD136) (Homo sapiens, UniProt Q04912); experiment: ELISA family specificity; assay type: binding
Protocol: as §2

Semaphorin 3a = experiment: ELISA family specificity; assay type: binding
Protocol: as §2

[9] = biological target: human cMET receptor with the HGF ligand (Homo sapiens, UniProt P08581); experiment: HGF:cMET HTRF ligand receptor inhibitory binding assay; conditions: purified IgG2 antibodies
human cMET receptor with the HGF ligand, sequence (P08581 25-932 limits assumed): as the sequence (P08581 25-932) above
Text: cMET-specific scFv antibodies were isolated from a large naïve human scFv phage display library in a series of repeated panning selection cycles on recombinant mammalian expressed biotinylated monomeric human cMET (MedImmune) essentially as described (Vaughan, 1996). ScFvs from the round 2 of the selection output were expressed in the bacterial periplasm and screened for their ability to inhibit the binding of the human cMET receptor with the HGF ligand in a HGF:cMET HTRF® (Homogeneous Time-Resolved Fluorescence) ligand receptor inhibitory binding assay. […] Unique genes were then converted to human immunoglobulin G2 (IgG2) antibodies and produced in mammalian cells essentially as described (Persic; 1997). The purified antibodies were then ranked based on their inhibitory effect in the HGF:cMET HTRF® binding assay.
To minimize potential immunogenicity, non-Vernier framework residues (Foote and Winter 1992) in the variable framework regions of 0021U3-B09 were targeted specifically and altered to match the closest human germline sequence. In the VH region, seven amino acid residues were mutated to match the reference human germline sequence IGHV1-8*01. In the VL region, three residues were mutated to match the reference human germline sequence IGKV1-5*03. All residues in VH and VL regions were successfully changed to the germline residues without loss of activity. […]

Cynomolgus monkey EGFR [10] = experiment: ELISA species cross reactivity; assay type: binding
Protocol: as §2, §3

Human EGFR [11] = biological target: T1, Human EGFR; experiment: ELISA species cross reactivity; assay type: binding; conditions: antibody 10 to 0.002 μg/mL
Protocol: as §2, §3

Mouse EGFR [12] = biological target: T3, Mouse EGFR; experiment: ELISA species cross reactivity; assay type: binding
Protocol: as §2, §3

HER2 = HER2 (Homo sapiens, UniProt P04626); experiment: ELISA family specificity; assay type: binding
Protocol: as §2

HER3 = HER3 (Homo sapiens, UniProt P21860); experiment: ELISA family specificity; assay type: binding
Protocol: as §2

HER4 = HER4 (Homo sapiens, UniProt Q15303); experiment: ELISA family specificity; assay type: binding
HER4, sequence (Q15303 26-1308, species assumed): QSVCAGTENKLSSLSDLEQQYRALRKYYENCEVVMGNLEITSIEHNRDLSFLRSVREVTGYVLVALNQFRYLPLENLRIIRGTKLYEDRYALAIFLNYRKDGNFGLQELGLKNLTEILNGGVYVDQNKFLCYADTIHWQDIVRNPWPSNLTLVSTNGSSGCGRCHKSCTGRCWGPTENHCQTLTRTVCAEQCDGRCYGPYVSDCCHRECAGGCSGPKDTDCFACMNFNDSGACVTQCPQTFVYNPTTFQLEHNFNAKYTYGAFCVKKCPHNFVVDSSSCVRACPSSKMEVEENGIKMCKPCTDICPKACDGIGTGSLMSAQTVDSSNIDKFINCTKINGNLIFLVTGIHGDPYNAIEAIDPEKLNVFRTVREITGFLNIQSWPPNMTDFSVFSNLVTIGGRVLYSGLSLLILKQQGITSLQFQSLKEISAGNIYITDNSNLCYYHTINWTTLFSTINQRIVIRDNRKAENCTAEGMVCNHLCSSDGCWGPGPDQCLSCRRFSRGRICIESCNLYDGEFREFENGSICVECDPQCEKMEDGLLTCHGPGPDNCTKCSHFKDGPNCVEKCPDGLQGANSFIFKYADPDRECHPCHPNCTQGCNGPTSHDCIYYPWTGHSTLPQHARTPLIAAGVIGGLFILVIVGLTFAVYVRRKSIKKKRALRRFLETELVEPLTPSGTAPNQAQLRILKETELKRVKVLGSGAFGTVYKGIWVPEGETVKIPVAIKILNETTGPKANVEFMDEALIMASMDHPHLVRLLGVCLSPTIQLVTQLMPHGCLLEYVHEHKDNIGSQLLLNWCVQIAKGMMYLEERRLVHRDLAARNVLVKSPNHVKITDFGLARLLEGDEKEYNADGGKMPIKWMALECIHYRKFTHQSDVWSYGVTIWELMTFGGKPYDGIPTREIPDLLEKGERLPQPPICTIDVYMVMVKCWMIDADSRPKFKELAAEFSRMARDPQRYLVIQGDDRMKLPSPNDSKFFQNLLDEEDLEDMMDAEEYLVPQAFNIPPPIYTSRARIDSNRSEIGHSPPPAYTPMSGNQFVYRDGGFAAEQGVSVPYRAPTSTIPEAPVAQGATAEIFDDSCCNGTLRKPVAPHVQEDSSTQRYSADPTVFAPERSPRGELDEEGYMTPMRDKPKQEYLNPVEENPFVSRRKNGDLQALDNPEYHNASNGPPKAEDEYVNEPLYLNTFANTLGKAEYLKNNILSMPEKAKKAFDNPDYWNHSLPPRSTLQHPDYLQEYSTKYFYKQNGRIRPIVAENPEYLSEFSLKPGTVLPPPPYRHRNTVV
Protocol: as §2

Molecule: Nc1ccn([C@@H]2O[C@H](CO)[C@@H](O)C2(F)F)c(=O)n1 [Gemcitabine]
- luminescent signal [1]: initial reduction in the luminescent signal reaching a nadir around day 21, after which the signal increased over time

B1: B09-57 IgG: affinity optimized, germlined anti-cMET antibody derived from 0021U3-B09, VH SEQ ID NO: 38, VL SEQ ID NO: 40 (antibody, V domains shown)
VH: QVQLVQSGAEVKKPGASVKVSCKASGYTFTDYYIHWVRQATGQGLEWMGWMNPNSGNTGYAQKFQGRVTMTRDTSISTAYMELSSLRSEDTAVYYCARGQGYTHSWGQGTMVTVSS
VL: DIQMTQSPSTLSASVGDRVTITCRASEGIYHWLAWYQQKPGKAPKLLIYKASSLASGVPSRFSGSGSGTEFTLTISSLQPDDFATYYCQQYSNYPPTFGGGTKLEIK
- KD (Cynomolgus monkey EGFR [2]; koff/kon): No binding detected at 200 nM
- Koff (Cynomolgus monkey cMET [3]; 25° C.): 0.00194 s⁻¹
- Kon (Cynomolgus monkey cMET [3]; 25° C.): 1.04e+06 M⁻¹ s⁻¹
- KD (Human EGFR [4]; KD calculated as koff/kon): No binding detected at 200 nM
- Koff (Human cMET [5]; 25° C.): 0.000882 s⁻¹
- Kon (Human cMET [5]; 25° C.): 563000 M⁻¹ s⁻¹
- KD (Mouse EGFR [6]; koff/kon): No binding detected at 200 nM
- KD (Mouse cMET): No binding detected at 200 nM
- ELISA binding (Cynomolgus monkey cMET [7]): comparable binding
- ELISA binding (Human cMET [8]): comparable binding
- ELISA binding (Ron (CD136)): no binding
- ELISA binding (Semaphorin 3a): no binding
- rank by inhibitory effect in the HGF:cMET HTRF binding assay [9]: most potent antibody

B2: RAA22 IgG: low affinity anti-EGFR IgG1 antibody clone, VH SEQ ID NO: 16, VL SEQ ID NO: 20 (antibody, V domains shown)
VH: QVQLVQSGAEVKKPGSSVKVSCKASGGTFSDNDFSWVRQAPGQGLEWMGAIVAVFRTETYAQKFQDRVKITADISTRTTYMELSSLRSEDTAVYYCARRLMSAISGPGAPLLMWGQGTLVTVSS
VL: QSALTQPRSVSGSPGQSVTISCTGTSSDVGGYNYVSWYQQHPGKAPKLMIYDVSKRPSGVPDRFSGSKSGNTASLTISGLQAEDEADYYCSSYTSSDTLEIFGGGTKLTVL
- Koff (Cynomolgus monkey EGFR [2]; 25° C.): 0.00601 s⁻¹
- Kon (Cynomolgus monkey EGFR [2]; 25° C.): 35400 M⁻¹ s⁻¹
- KD (Cynomolgus monkey cMET [3]; koff/kon): No binding detected at 200 nM
- Koff (Human EGFR [4]; 25° C.): 0.00206 s⁻¹
- Kon (Human EGFR [4]; 25° C., 1:1 binding model): 44100 M⁻¹ s⁻¹
- KD (Human cMET [5]; koff/kon): No binding detected at 200 nM
- Koff (Mouse EGFR [6]; 25° C.): 0.019 s⁻¹
- Kon (Mouse EGFR [6]; 25° C.): 40300 M⁻¹ s⁻¹
- KD (Mouse cMET): No binding detected at 200 nM
- ELISA binding (Cynomolgus monkey EGFR [10]): bound more weakly
- ELISA binding (Human EGFR [11]): bound more weakly
- ELISA binding (Mouse EGFR [12]): weak, but detectable
- ELISA binding (HER2): no binding
- ELISA binding (HER3): no binding
- ELISA binding (HER4): no binding
